Results published in the supplement of paper PMC11865577.

Tests used:
Assay in all cases: pull-down binding Z-score (relative to library population); higher = stronger binding
Conditions in all cases: RNA library: Library-2
TO-N3 (biotin conjugate) = system: TO-N3 (biotin conjugate)
How it was run: (§1)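 Biotin-conjugated small molecule (100 pmol) on streptavidin beads was incubated with 1 μg of heat-folded Cy5- or Cy3-end-labelled RNA library in phosphate/NaCl/KCl buffer at 25 °C for 60 min. Following three washes, RNA was eluted with hot SDS and hybridised at 55.5 °C for 20 h to a DNA barcode microarray. The binding value is a Z-score computed from the library mean and standard deviation, after subtraction of beads without compound and averaging of barcoded replicate probes with the highest and lowest excluded.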

[1] = system: TO-3-N3-2 (biotin conjugate)
How it was run: as §1

[2] = system: TO-N3-2 (biotin conjugate)
How it was run: as §1

[3] = system: TO-3-N3 (biotin conjugate)
How it was run: as §1

Sequence	pull-down binding Z-score (TO-N3 (biotin conjugate))	pull-down binding Z-score [1]	pull-down binding Z-score [2]	pull-down binding Z-score [3]
GGAUGGUUACAGGACUAAGGAACAAUCCGUCC [IAV_invivo_HA_4_Motif_14+IAV_invivo_HA_4_Motif_14]	-0.295	-0.14	-0.0521	-0.461
GGAUGUCAAUCC [IAV_invivo_PB1_2_Motif_2+IAV_invivo_PB1_2_Motif_2]	0.0736	-0.17	-0.856	0.302
GGAUUGUACAGAAAGUGUGUUAAAUCC [SHAPE_invivo_SARS-CoV-2_Motif_47]	-0.222	0.139	-0.185	-0.22
GGAUUUCUGGACAUUUGGACAUAUAAUGCAGAAUUGUUAGUUCUACUGGAAAAUGAAAGGACUCUGGAUUUCC [IAV_invivo_HA_4_Motif_17+IAV_invivo_HA_4_Motif_17]	-0.198	0.4	0.395	-0.659
GGCAACUAGCACUCUCCAAGGGUGUUCACUUUGUUUGCAACUUGCUGUUGUUGUUUGUAACAGUUUACUCACACCUUUUGCUCGUUGCU [SHAPE_invitro_SARS-CoV-2_Motif_465]	-0.358	-0.205	-0.0997	-0.318
GGCACAAAUGCAACACUGCAUUACCAUGCGGUUGUGCC [3-way model-1_rpoH]	-1.42	-0.624	-1.27	-1.03
GGCAGACGUGGUCCAGAACAAACCCAAGGAAAUUUUGGGGACCAGGAACUAAUCAGACAAGGAACUGAUUACAAACAUUGGCC	0.753	0.536	0.614	0.608
GGCAGCGAGCC [IAV_invivo_NP_5_Motif_25+IAV_invivo_NP_5_Motif_25]	-1.01	-0.633	-0.713	-0.756
GGCAGUUUGUAUGUAAAUAAACAUGCAUUCC [SHAPE_invivo_SARS-CoV-2_Motif_362]	-0.216	-0.171	-0.727	0.0152
GGCAUCAUAUGGGUUGCAACUGAGGGAGCCUUGAAUACACCAAAAGAUCACAUUGGCACCCGCAAUCCUGCUAACAAUGCU [DMSMaPseq_invitro_SARS-CoV-2_Motif_513]	-0.253	-0.241	0.342	-0.63
GGCAUCUGCGGGCC [IAV_invivo_NP_5_Motif_21+IAV_invivo_NP_5_Motif_21]	-0.759	-0.641	-0.239	-0.637
GGCCAGCAGAGGCC [IAV_invivo_PA_3_Motif_7+IAV_invivo_PA_3_Motif_7]	0.703	0.0485	-0.109	0.905
GGCCAGGUUUCAAGGCC [IAV_invivo_PA_3_Motif_22+IAV_invivo_PA_3_Motif_22]	-0.785	-0.644	-0.29	-0.64
GGCCAUUAGAGGCC [IAV_invivo_PB2_1_Motif_29+IAV_invivo_PB2_1_Motif_29]	-0.257	-0.69	-1.06	0.0791
GGCCCGAGUGAUGGGCU [IAV_invivo_NA_6_Motif_9+IAV_invivo_NA_6_Motif_9]	-0.27	-0.29	0.201	-0.127
GGCCGCAAAUUGCACAAUUUGCCCCC [SHAPE_invivo_SARS-CoV-2_Motif_557]	0.62	-0.187	-0.213	0.76
GGCCUCACGGCC [IAV_invivo_PB1_2_Motif_9+IAV_invivo_PB1_2_Motif_9]	-0.332	-0.354	-0.914	0.0835
GGCCUGGGCCUGGGCCUGGGCCUGGGCCUGGGCCUG [r(GGCCUG)6]	-0.184	-0.435	0.12	0.00804
GGCCUUGAAGCC [SHAPE_invitro_SARS-CoV-2_Motif_466]	-0.703	-0.216	-0.459	-0.406
GGCGAAUCUGGCGCC [IAV_invivo_NP_5_Motif_7+IAV_invivo_NP_5_Motif_7]	0.493	-0.231	0.288	0.577
GGCGAUAGUUGUAAUAACUAUAUGCU	-1.31	-0.564	-0.976	-1.04

Sequence	pull-down binding Z-score (TO-N3 (biotin conjugate))	pull-down binding Z-score [1]	pull-down binding Z-score [2]	pull-down binding Z-score [3]
GGCGAUUUUGUUAAAGCCACUUGCGAAUUUUGUGGCACUGAGAAUUUGACUAAAGAAGGUGCCACUACUUGUGGUUACUUACCCCAAAAUGCU	0.66	0.278	0.59	0.452
GGCGUAAGUCUGAUACUUACCUG [U1snRNP5ss-10]	0.668	0.0886	1.08	0.212
GGCGUCUCAAGGCACC [IAV_invivo_NP_5_Motif_2+IAV_invivo_NP_5_Motif_2]	0.151	-0.687	-0.084	0.308
GGCGUUGUCCUGCUGAAAUUGUUGACACUGUGAGUGCUUUGGUUUAUGAUAAUAAGCUUAAAGCACAUAAAGACAAAUCAGCUCAAUGCU	-0.324	-0.302	0.182	-0.58
GGCUAUGGUUUCCAGAGCC [IAV_invivo_PB1_2_Motif_37+IAV_invivo_PB1_2_Motif_37]	0.285	-0.179	-0.356	0.417
GGCUAUGUAACACAUGGCU	-0.351	-0.449	-1.06	-0.114
GGCUCAUAGACUUCCUUAAGGAUGUAAUGGAGUC [IAV_invivo_PB1_2_Motif_10+IAV_invivo_PB1_2_Motif_10]	0.795	-0.15	1.62	0.164
GGCUGGAUCGAGUGAGCAAGCAGCAGAGGCC [IAV_invivo_M1_M2_7_Motif_14+IAV_invivo_M1_M2_7_Motif_14]	1.37	0.757	2.47	0.316
GGCUGGUGGCACUACUGAAAUGCUAGCGAAAGCUUUGAGAAAAGUGCCAACAGAC	0.418	-0.33	0.4	0.234
GGCUGUAGUUGUGAUCAACUCCGCGAACCCAUGCUUCAGUCAGCUGAUGCACAAUCGUUUUUAAACGGGUUUGCGGUGUAAGUGCAGCC [DMSMaPseq_invitro_SARS-CoV-2_Motif_241]	-0.133	-0.0355	0.388	-0.355
GGCUUCAUCAAACAAUAUGGUGAUUGCC	-0.484	-0.331	-1.01	-0.151
GGCUUCAUUUAAUUAUUUGAAGUC	-1.24	-0.711	-1.75	-0.867
GGGAAAGAAGUCCU [IAV_invivo_HA_4_Motif_8+IAV_invivo_HA_4_Motif_8]	-0.705	-0.278	-0.872	-0.398
GGGAAGAACACC [IAV_invivo_M1_M2_7_Motif_3+IAV_invivo_M1_M2_7_Motif_3]	0.899	5.36e-05	-0.0552	1.13
GGGAAGGCGAAAGACC [IAV_invivo_PA_3_Motif_21+IAV_invivo_PA_3_Motif_21]	0.603	0.289	1.12	0.143
GGGAAUAUAAUCUC [IAV_invivo_NA_6_Motif_2+IAV_invivo_NA_6_Motif_2]	1.33	0.038	-0.715	1.52
GGGACUGAGAAUUAGCUCAUCCU [IAV_invivo_PB2_1_Motif_14+IAV_invivo_PB2_1_Motif_14]	-0.536	-0.318	0.208	-0.573
GGGACUUAUGAUUAUCCC [IAV_invivo_HA_4_Motif_18+IAV_invivo_HA_4_Motif_18]	-0.122	0.126	-0.911	0.293
GGGAGAGACGAACAGUCGAUUGCC [IAV_invivo_PB2_1_Motif_17+IAV_invivo_PB2_1_Motif_17]	0.0259	-0.268	0.839	-0.434
GGGAGAUAACAUUCC [IAV_invivo_M1_M2_7_Motif_7+IAV_invivo_M1_M2_7_Motif_7]	-0.16	-0.0296	-0.107	-0.149
GGGAGAUUAAUGGUCCU [IAV_invivo_PB2_1_Motif_25+IAV_invivo_PB2_1_Motif_25]	0.327	0.00669	0.225	0.341

Sequence	pull-down binding Z-score (TO-N3 (biotin conjugate))	pull-down binding Z-score [1]	pull-down binding Z-score [2]	pull-down binding Z-score [3]
GGGAGCAAACCC [IAV_invivo_PB1_2_Motif_31+IAV_invivo_PB1_2_Motif_31]	-0.425	-0.259	0.11	-0.179
GGGAGCUAUAAACAGCAGUCUCCC [IAV_invivo_HA_4_Motif_12+IAV_invivo_HA_4_Motif_12]	0.537	0.213	0.468	0.403
GGGAGUCUUCGAGCUCUC [IAV_invivo_NP_5_Motif_24+IAV_invivo_NP_5_Motif_24]	-0.358	-0.548	-0.555	-0.194
GGGAUUAUCCU	-0.927	-0.465	-0.985	-0.811
GGGCAAGCUGUCUCAAAUGUCC [IAV_invivo_PA_3_Motif_10+IAV_invivo_PA_3_Motif_10]	-0.543	-0.226	0.0264	-0.508
GGGCCACUGCCAGAAGACAAUGAACCAAGUGGUUAUGCCC [IAV_invivo_PB1_2_Motif_5+IAV_invivo_PB1_2_Motif_5]	0.0266	0.0011	0.713	-0.323
GGGCCUCCCUGUUCUCAGCGGUCC [IAV_invivo_PA_3_Motif_11+IAV_invivo_PA_3_Motif_11]	-0.152	-0.456	-0.287	-0.00636
GGGCUAGAUUCCC [DMSMaPseq_invitro_SARS-CoV-2_Motif_228]	-0.867	-0.264	-0.533	-0.623
GGGCUCAGAAUAUGACUAUGUCAUAUUCACUCAAACCACUGAAACAGCUC [SHAPE_invitro_SARS-CoV-2_Motif_328]	-0.428	0.0239	-0.4	-0.515
GGGCUCAUACCC [IAV_invivo_HA_4_Motif_7+IAV_invivo_HA_4_Motif_7]	0.483	0.875	0.397	0.721
GGGCUGUGACCACUGAAGUGGCAUUUGGCCU [IAV_invivo_M1_M2_7_Motif_9+IAV_invivo_M1_M2_7_Motif_9]	-0.176	-0.255	0.272	-0.255
GGGGACGACCU [IAV_invivo_NA_6_Motif_17+IAV_invivo_NA_6_Motif_17]	0.481	-0.417	-0.0675	0.479
GGGGAUCUAUCAGAUUCUGGCGAUCUACUCAACUGUCGCCAGUUCACUGGUGCUUUUGGUCUCC [IAV_invivo_HA_4_Motif_19+IAV_invivo_HA_4_Motif_19]	0.629	0.123	0.69	0.57
GGGGCCGGGGCCGGGGCCGGGGCCGGGGCCGGGGCC [G4_r(GGGGCC)8]	3.9	4.66	3.77	4.47
GGGGCGUUUAUGCAACCC [IAV_invivo_PB1_2_Motif_33+IAV_invivo_PB1_2_Motif_33]	-0.497	-0.277	-0.334	-0.754
GGGGCUGAGAAACCAAAGUUUC [IAV_invivo_PA_3_Motif_3+IAV_invivo_PA_3_Motif_3]	0.788	0.214	0.822	0.484
GGGGUGAAGAGGAUACUUACCUG [U1snRNP5ss-12]	0.427	0.365	0.523	0.145
GGGGUGUACAUCAAUACUGCCUU [IAV_invivo_PA_3_Motif_19+IAV_invivo_PA_3_Motif_19]	1.4	0.332	0.595	1.11
GGGUACGACUUUGAAAGGGAGGGAUACUCUCUAGUCGGAAUAGACCC [IAV_invivo_NP_5_Motif_16+IAV_invivo_NP_5_Motif_16]	0.986	0.439	0.638	0.779
